Experimental findings from patent publication US20230192860A1 (Bristol-Myers Squibb, published 2023) are described below.

Experiment [1] deals with T1, monovalent hVISTA-ECD with polyhistidine tail (SEQ ID NO: 325) (human, UniProt Q9H7M9 33-193).
T1 construct: also called hVISTA-ECD 6-His tag; human VISTA
In words: SPR, mAb captured on Protein A chip, hVISTA injected, PBST pH 6.0, 37 C.

Experiment [2] concerns the target T1, monovalent hVISTA-ECD with …. In words: SPR, mAb captured on Protein A chip, hVISTA injected, PBST pH 7.4, 37 C.
Experiment [3] has as its target T2, monovalent hVISTA-ECD (amino acids 32-193 of SEQ ID NO: 1 with a 7xHis tail) (human, UniProt Q9H7M9 33-193).
T2 construct: analyte of the SPR assays; also called huVISTA-His; human VISTA-ECD
The experiment is described as follows: SPR 37C, Ab on Protein A, hVISTA-ECD 50-5 nM, pH 7.4, average. Here is the method:
(§1) Binding of several preparations of each of the ‘029 progeny clones and of the parent ‘029 antibodies, formatted as IgG1.3 antibodies, to human VISTA at pH 6.0 and 7.4 was measured by Surface plasmon resonance (SPR). SPR analysis was performed to measure koff and KD binding affinity measurements for VISTA Abs at acidic and neutral pHs using a Biacore® T100 instrument (GE Healthcare). […] Antibodies were diluted to 25 nM in PBST pH 7.4, and were captured across active biosensor flow cells at 5 ul/min for 60 seconds. A concentration series of 50 - 5 nM monovalent hVISTA-ECD (SEQ ID NO: 325) was prepared in pH 7.4 and 6.0 running buffers, and was injected over the captured antibodies at 40 ul/min to measure association and dissociation. Two 15 second injections of 10 mM glycine pH 1.5 were used to regenerate the Protein A capture surface between assay cycles. Rate constants ka (kₒₙ) and kd (koff) were derived from reference flow cell and 0 nM blank-subtracted sensorgrams, and were fit to a 1:1 binding model in Biacore® T200 Evaluation Software v.2.0. The affinity constant, KD was calculated as the ratio of rate constants koff/kₒₙ for each VISTA antibody.

For experiment [4], the target named is T2, monovalent hVISTA-ECD (amino acids …). The experiment is described as follows: SPR 37C, Ab on Protein A, hVISTA-ECD 50-5 nM, pH 6.0, average. The protocol: as §1
Experiment [5] concerns the target T3, hVISTA-ECD 6-His tag (human, UniProt Q9H7M9 33-193).
T3 construct: also called monovalent hVISTA-ECD; human VISTA
The experiment is described as follows: SPR; KD at pH 6.45 over KD at pH 6.0 (head prints 7.4).

The target in experiment [6] is T3, hVISTA-ECD 6-His tag. In words: SPR, Ab on Protein A, hVISTA analyte, pH 6.45.
For experiment [7], the target named is T3, hVISTA-ECD 6-His tag. The experiment is described as follows: SPR; kd at pH 6.45 over kd at pH 6.0 (head prints 7.4). Here is the method:
Further binding kinetic experiments were performed at various pHs on VISTA antibodies described herein by SPR as generally described in Example 9 above. Antibodies were normalized to 50 nM concentration in PBST pH 7.4 and captured on a Protein A CM5 chip (ID 4931) by injecting for 45 seconds at a 5 µL/min flow rate. An 8-point human VISTA titration ([…]) was prepared in PBST at pH 7.4, 6.9, 6.45, and 6.0. Titrations were injected over the captured antibodies for 180 seconds at 30 µL/min. Sensorgrams were fit to a 1:1 binding model in T200 evaluation software and the kinetic constants were reported.
Each table reports the data at one of the four tested pHs (7.4, 6.9, 6.45, and 6.0, respectively). The 8-point hVISTA titration used in these assays was chosen to provide increased confidence in kinetic values reported at neutral pH conditions. A relatively stringent cutoff for non-binding was applied in this assay. Certain progeny of P1-061029 antibody (P1-068757, ‘759, ‘765, ‘771, and ‘775) show no binding to hVISTA at micromolar concentrations at pH 7.4, while ‘761 and ‘767 show no binding to hVISTA at 100 nM at pH 7.4 but do show binding to hVISTA at micromolar concentrations.
(In general: SPR reads the build-up and loss of mass on a sensor chip optically.)

Experiment [8] addresses T3, hVISTA-ECD 6-His tag. The experiment is described as follows: SPR, Ab on Protein A, hVISTA analyte, pH 6.0.

T2 sequence (Q9H7M9 other isoform, or with tags, fused parts or gaps limits assumed): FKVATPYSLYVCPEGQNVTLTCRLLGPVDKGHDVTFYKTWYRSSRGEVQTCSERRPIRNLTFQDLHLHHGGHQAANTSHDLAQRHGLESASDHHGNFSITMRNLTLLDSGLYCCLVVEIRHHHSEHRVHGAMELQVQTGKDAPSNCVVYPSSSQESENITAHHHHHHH
T1 sequence (Q9H7M9 other isoform, or with tags, fused parts or gaps limits assumed): as above
T3 sequence (Q9H7M9 other isoform, or with tags, fused parts or gaps limits assumed): as above

B1: P1-077889 (P1-068748 H32Y D58Y) (antibody, V domains shown)
VH: QVQLVESGGGVVQPGRSLRLSCAASGFTFSHYAMHWVRQAPGKGLEWVAIIWYDGSNDYYADSVKGRFTISRDNSKNTLYLQMNSLRAEDTAVYYCARDSGFYDSYYFDYWGQGTLVTVSS
VL: EIVLTQSPATLSLSPGERATLSCRASQSVSSSYLAWYQQKPGQAPRLLIYDASNRATGIPARFSGSGSGTDFTLTISSLEPEDFATYYCQQYNSYPYTFGQGTKLEIK
notes: Reversion mutant of P1-068748 (Kabat names); captured on a Protein A chip
In experiment [1], B1 came in with a Kd of 130 nM, a koff of 0.022 s⁻¹ and a kon of 180000 M⁻¹ s⁻¹. In experiment [2], this molecule yielded an equilibrium dissociation constant (Kd) of 2400 nM, a koff of 0.073 s⁻¹ and a kon of 31000 M⁻¹ s⁻¹.

B2: P1-077893 (P1-068748 D57K D100S) (antibody, V domains shown)
VH: QVQLVESGGGVVQPGRSLRLSCAASGFTFSHHAMHWVRQAPGKGLEWVAIIWYDGSNKDYADSVKGRFTISRDNSKNTLYLQMNSLRAEDTAVYYCARDSGFYSSYYFDYWGQGTLVTVSS
VL: EIVLTQSPATLSLSPGERATLSCRASQSVSSSYLAWYQQKPGQAPRLLIYDASNRATGIPARFSGSGSGTDFTLTISSLEPEDFATYYCQQYNSYPYTFGQGTKLEIK
notes: Reversion mutant of P1-068748 (Kabat names); the antibody was captured on a Protein A chip, so an Fc was present
Take B2: in experiment [1], the Kd is 0.43 nM, the koff turned out to be 0.00058 s⁻¹ and the kon came to 1.4e+06 M⁻¹ s⁻¹. In experiment [2], this molecule came in with a Kd of 4.7 nM, a koff of 0.0019 s⁻¹ and a kon of 400000 M⁻¹ s⁻¹.

B3: P1-077891 (P1-068748 H32Y D100S) (antibody, V domains shown)
VH: QVQLVESGGGVVQPGRSLRLSCAASGFTFSHYAMHWVRQAPGKGLEWVAIIWYDGSNDDYADSVKGRFTISRDNSKNTLYLQMNSLRAEDTAVYYCARDSGFYSSYYFDYWGQGTLVTVSS
VL: EIVLTQSPATLSLSPGERATLSCRASQSVSSSYLAWYQQKPGQAPRLLIYDASNRATGIPARFSGSGSGTDFTLTISSLEPEDFATYYCQQYNSYPYTFGQGTKLEIK
notes: as for B1
Regarding B3, in experiment [1], the Kd came to 0.36 nM, the koff was found to be 0.00099 s⁻¹ and the kon was 2.7e+06 M⁻¹ s⁻¹. Also, in experiment [2], the Kd was 2.1 nM, the koff amounted to 0.0025 s⁻¹ and the kon worked out at 1.2e+06 M⁻¹ s⁻¹.

B4: P1-069063 (antibody, human IgG1, kappa, V domains shown)
VH: EVQLVESGGGLVQPGKSLRLSCAASGFTLEDYAMHWVRQAPGKGLEWVSGINWNSAEIGYADSVKGRFTISRDNAKNSLYLQMNSLRTEDTALYYCAKVPGYSGGWIDADDEWGQGTMVTVSS
VL: not shown
notes: IgG1.3
Regarding B4, in experiment [3], binding was characterised by a dissociation constant (Kd) of 230 nM, the koff is 0.027 s⁻¹ and the kon came out at 120000 M⁻¹ s⁻¹. In experiment [4], binding was characterised by a dissociation constant (Kd) of 2.4 nM, the koff amounted to 0.0044 s⁻¹ and the kon came to 1.9e+06 M⁻¹ s⁻¹.

B5: P1-069077 (antibody, human IgG1, kappa, V domains shown)
VH: EVQLVESGGGLVQPGKSLRLSCAASGFTLEDEAMHWVRQAPGKGLEWVSGINWNSDEIGYADSVKGRFTISRDNAKNSLYLQMNSLRTEDTALYYCAKVPGYSGGWIDAFDVWGQGTMVTVSS
VL: not shown
notes: IgG1.3
Turning to B5, in experiment [3], binding was put at a Kd of 31 nM, the koff amounted to 0.0019 s⁻¹ and the kon was determined as 60000 M⁻¹ s⁻¹. Besides, in experiment [4], the Kd was 0.19 nM, the koff came to 0.00012 s⁻¹ and the kon came to 630000 M⁻¹ s⁻¹.

B6: P1-068765 (antibody, human IgG1, kappa, V domains shown)
VH: EVQLVESGGGLVQPGKSLRLSCAASGFTDEDYAMHWVRQAPGKGLEWVSGINWNSEEIGYADSVKGRFTISRDNAKNSLYLQMNSLRTEDTALYYCAKVPGYSGGWIDAEDDWGQGTMVTVSS
VL: not shown
notes: also called P1-068765-10; 029 progeny
As for B6, the “7.4 KD/ 6.0 KD” value with hVISTA-ECD 6-His tag [5] stood at 14.2. In the experiment with hVISTA-ECD 6-His tag [6], this molecule showed a Kd of 420 nM, a koff of 0.013 s⁻¹ and a kon of 31000 M⁻¹ s⁻¹. In addition, the “7.4 kd/ 6.0 kd” value with hVISTA-ECD 6-His tag [7] was 2.8. In the experiment with hVISTA-ECD 6-His tag [8], this molecule displayed a Kd of 29 nM, a koff of 0.0045 s⁻¹ and a kon of 150000 M⁻¹ s⁻¹.

B7: P1-068757 (antibody, human IgG1, kappa, V domains shown)
VH: EVQLVESGGGLVQPGKSLRLSCAASGFTLEDEAMHWVRQAPGKGLEWVSGINWNSEEIGYADSVKGRFTISRDNAKNSLYLQMNSLRTEDTALYYCAKVPGYSGGWIDAEDDWGQGTMVTVSS
VL: not shown
notes: also called P1-068757-9; 029 progeny
On to B7, for which, in the experiment with hVISTA-ECD 6-His tag [5], the “7.4 KD/ 6.0 KD” value is 5.8. In the experiment with hVISTA-ECD 6-His tag [6], this molecule returned a Kd of 140 nM, a koff of 0.018 s⁻¹ and a kon of 130000 M⁻¹ s⁻¹. Further, the “7.4 kd/ 6.0 kd” value in the experiment with hVISTA-ECD 6-His tag [7] stood at 1.7. In the experiment with hVISTA-ECD 6-His tag [8], the affinity, expressed as Kd, was 24 nM; the koff was determined as 0.01 s⁻¹; the kon turned out to be 420000 M⁻¹ s⁻¹.

B8: P1-069075 (antibody, human IgG1, kappa, V domains shown)
VH: EVQLVESGGGLVQPGKSLRLSCAASGFTLEDYAMHWVRQAPGKGLEWVSGINWDSAEIGYADSVKGRFTISRDNAKNSLYLQMNSLRTEDTALYYCAKVPGYSHGWIDAEDVWGQGTMVTVSS
VL: not shown
notes: IgG1.3
In experiment [3], B8 came in with a Kd of 18 nM, a koff of 0.0023 s⁻¹ and a kon of 130000 M⁻¹ s⁻¹. In experiment [4], the affinity, expressed as Kd, was 0.22 nM; the koff worked out at 0.00029 s⁻¹; the kon was 1.3e+06 M⁻¹ s⁻¹.

B9: P1-069069 (antibody, human IgG1, kappa, V domains shown)
VH: EVQLVESGGGLVQPGKSLRLSCAASGFTLDDYAMHWVRQAPGKGLEWVSGINWNSEEIGYADSVKGRFTISRDNAKNSLYLQMNSLRTEDTALYYCAKVPGYSGGWIDADDVWGQGTMVTVSS
VL: not shown
notes: IgG1.3
Consider B9, for which, in experiment [3], the Kd turned out to be 84 nM, the koff is 0.0075 s⁻¹ and the kon was 90000 M⁻¹ s⁻¹. In experiment [4], the dissociation constant (Kd) was determined as 0.86 nM, the koff was 0.0012 s⁻¹ and the kon is 1.4e+06 M⁻¹ s⁻¹.

B10: P1-069071 (antibody, human IgG1, kappa, V domains shown)
VH: EVQLVESGGGLVQPGKSLRLSCAASGFTLEDEAMHWVRQAPGKGLEWVSGINWNSADIGYADSVKGRFTISRDNAKNSLYLQMNSLRTEDTALYYCAKVPGYSEGWIDAFDVWGQGTMVTVSS
VL: not shown
notes: IgG1.3
In experiment [3], B10 showed a Kd of 93 nM, a koff of 0.004 s⁻¹ and a kon of 43000 M⁻¹ s⁻¹. In experiment [4], this molecule displayed a Kd of 0.73 nM, a koff of 0.00051 s⁻¹ and a kon of 700000 M⁻¹ s⁻¹.

B11: P1-069067 (antibody, human IgG1, kappa, V domains shown)
VH: EVQLVESGGGLVQPGKSLRLSCAASGFTLDDYAMHWVRQAPGKGLEWVSGINWNSEEIGYADSVKGRFTISRDNAKNSLYLQMNSLRTEDTALYYCAKVPGYSGGWIDADDEWGQGTMVTVSS
VL: not shown
notes: IgG1.3
In experiment [3], B11 registered a Kd of 290 nM, a koff of 0.027 s⁻¹ and a kon of 100000 M⁻¹ s⁻¹. Further, in experiment [4], the Kd was 2.7 nM, the koff amounted to 0.0045 s⁻¹ and the kon was determined as 1.7e+06 M⁻¹ s⁻¹.

B12: P1-069065 (antibody, human IgG1, kappa, V domains shown)
VH: EVQLVESGGGLVQPGKSLRLSCAASGFTLEDEAMHWVRQAPGKGLEWVSGINWNSDDIGYADSVKGRFTISRDNAKNSLYLQMNSLRTEDTALYYCAKVPGYSGGWIDAFDVWGQGTMVTVSS
VL: not shown
notes: IgG1.3
In experiment [3], B12 registered a Kd of 39 nM, a koff of 0.0023 s⁻¹ and an association rate constant (kon) of 59000 M⁻¹ s⁻¹. In experiment [4], this molecule registered a Kd of 0.38 nM, a koff of 0.00022 s⁻¹ and a kon of 570000 M⁻¹ s⁻¹.

A word on the Kd: it is the constant that tells how readily two partners part at equilibrium. Lower therefore signals a tighter complex. As usually defined, the koff is the rate constant with which the complex falls apart. A low value points to a long-lived complex. One may read the kon as the rate constant with which the complex forms. Higher therefore signals faster complex formation.
